Assay results from paper PMC11098746 (2024).

The binders below were run against FGFR4 ectodomain (Homo sapiens, UniProt P22455) (assay: AVEXIS normalised luminescence).

Row | Binder | binding score
1 | 69 (protein, bait human Fc-tagged dimer) IYYCNDNILENANNDDSTKDINNINKNSANKAKSEKTSNYNNDQYNIDDAYNEDEENDEEEGDDDENDHFEVPINCAGGNCFDSMDDINKIIDNKKKKMKYRRRRGKAIQIIKPNVNHAELIIIEENLEIFKRIDKPIAIVSVLGDMHTGKSFLLNLLNEHVIPDINKANKYIENGFKVGNDITASTYGIWIWSEPIRINVKKLKKIYEYINENFANFIKSYEYEKDEYNEEIIDLLNLYKTDDWISNVEELNLADTDEVNLILMDTQGLNSPNVNKRYDEILYALTNLISTDIIFLTMKMINNKDLEFIENIAKDANLFMLRAYTRSSGSTFSIKKNNFHKILDTLNNNLENNALILESIASKNLMWVVHDFSQRLDVRKGKLWLDILLNSDRRDLDIKYWKKIISNKAKDKHDAYTTKKQKIAYLTYNENSASGLLPNNNNNNNNANDASSNYKLNILYKNIDCVLLRNMYHNKEFDFTKANINDLNEEYKNDVLLLRYKIYLRALLFPKKMYSDVQINNIINKIRKEQKLREEQEKNKDNKKNDANNQANDLNSNKDETSGSQVTNRFMSGHDVYDFITFLVKSANQNLFTNVNQFFKHFKINRAEISRNDLIFLYKKYLLQFMENEDVEFISNLNDENDDLFLQKEGNNAAVNHDENSDADSLFNDHDENMQLKEHNIKDGEDNTHQKKDSYKLPPLLNEIKKYEELIREQILNIWYKYTESDFHDEEEKELIKDIENNLYERLDQIKIEMLELGEMNIRKFCKIACEDALQIVVEDIKMKSDQYPIKQKDLTTFFESVSYNLIKYLEKKLSKNSDKLDLIYYKDNICSPLINNAFQEFYFLKKKNIALNENRLKSYFSNAVEKGKEVFEVLAENTENIAEYFKNKNMFYTVLDKWTSEAINTYTLTLSDFAKEEKEINDEYLNVLNNDIKLLKQKAMEKWHNHCRDKTSALYNMHKSNLKKNFLENFNFPLDELVLQDIFLNLKGQEELKYMDIYCANEDSWNSEYKNFLKLTDEIFQFIKDENLKAIQITCQQPLDELKNGIKGEIHKYYLWSSLKSTLYNRALIVLSSNIENIYIKNQRENKIQSNLDEKYNNKNKNYKRISKDLMSKVINRWLNNDIYNVYYP | 0.719
2 | 39 (protein, bait human Fc-tagged dimer) GTIEIKLSEFVGDSVNLAAKLHGFFLELNVNIAFTVICSNGMKALNGICIPCPLGSYNNINEYIKNNNIYECTLCHNNAATKNEGSTSISQCLCLPGYELNNNDLCVPCKRGTWKTKLSNSPCIFHCYPNSYSLVQGSRSEEESKCKCKRGFYFVSKDSINFCDNCNIGYFCPGGYKIGEKKCPKNTANIAQNNFAISSCKCDVGFEPFDSSNLNAYNFKNDPIFNDYKDFLDDVKSSQICVPCKEGFYKNTVSEEKCKRCSDNVYTDGLQSTSISNCKKCEKGYYLQSEDSCIICPDNHYCPGAYINDPKYAIYENQKIPCGDKSLTIPPNNLNVAHLNCLCKKGFEFIKTDDNEFDCLEVPKNYYKSHLGNKEKEPCPENSVTLYTQTKSKVKCLCMPGYYWDLKEFKCIKCPKGHYCPGGYLKNCFNNQNLHSCKPQKKKCPLKNSATQTKESFSQSSCLCDKGYTINKEELRECIPCPINTYKDVISNAECTKCLTPYTTDGQIGSTKEEDCTCSGGFFFLNHCLPCSDKNTYCKGGKMIVNNKNKAIHYGPSKCPPNTAVSFETERPYNKGFCVCQKGFKHVYTTSDFTKICAPCERGFFKTIIGDFSCESKCKPNSASFVGTIHETHCFCLENYYFKNGICLNCPDGAYCEGGFQKETLLYMKKNEYYLDTSKIKHIMPVPKENYALYKLKTNIYNTDWFIVECPIKEACLYNEKCHESMTNFLCGECKKGYTNNFAKLNLCIKCSGHIMN | 0.948
3 | 63 (protein, bait human Fc-tagged dimer) FRGNNGHNSASSLYNGAQFIEQLNNAFTSAFLESQSMNKIGDDLAETISNELVSVLQKNSPTFLESSFDIKSEVKKHAKSMLKELIKVGLPSFENLVAENVKPPKVDPATYGIIVPVLTSLFNKVETAVGAKVSDEIWNYNSPDVSESEESLSDDFFD | 1.23
4 | 54 (protein, bait human Fc-tagged dimer) DQLDMGSVHNNNAVVGNSASHSPSSSSSSPSSSSSSSSSSPSASSSSSSSSPASSSSSPSSTSDDSKNAALDKIDEELQKKKKNEKL | 0.958
5 | 82 (protein, bait human Fc-tagged dimer) GLCKPCTLENHYCEGGLESDITFNNKLIKGKFHTLPKKCPRGLGIPNIIKERNSINNCLCIHGKVQRTTENKNVECFPCPPNTFKENEYDNSCSGACPPFSTTFVGSSYENQCFCKNNYYLVSTDDENDANGNSINNNKNIYNNNNIYNNNNNNNNNNNNNFNNKADVKKKSCKICPIGAICNRGFNIYIYLKLLNDRSYNNINVIDHETPFPKYGYYAVYREKTNPAKSWDTLDDSAILNYVYPYHKLLLFIQKNIQKGNYFFLEKGNKFFLNDDFVEKMNEKSKYEEENANKFVTKSEIIHNVNTNNLKGKHNTLNNNNNNNNINKASSFLNQNNYNNDIIQLSSYENNPFKNLASTSEVSSNNNVISFIQNNDKTNNAANDNNIENLVDIFNKYVQEAKELQIQNRKFERIPDIHPCTIPNRCLGTLINLCSDGSTGYQCNNCAKNYDMSYFKSKCKKCQNLFYE | 1.25
6 | 11 (protein, bait human Fc-tagged dimer) LKVPIENAPFVFNKKENDIKYFLDKETPDDFLSNNAYSLDITLENFPNPFFHPSLCNRYGFKFSYICDPNKILSRNIADQIEEILNYQRRNSKHFCVDKEVPYVLGVALINKLPYGISADTFASQIFEYWKLSNKDCNDGVLLFFVKEDTHFILKWKKGAQSIINFRTATSMNKAFNQYLRKYSLEYSILSAVKLTSQYLTEEIIPPTQTAQK | 1.58
7 | 88 (protein, bait human Fc-tagged dimer) FENAIKKTKNQENNLALLPIKSTEEEKDDIKNGKDIKKEIDNDKENIKTNNAKDHSTYIKSYLNTNVNDGLKYLFIPSHNSFIKKYSVFNQINDGMLLNEKNDVKNNEDYKNVDYKNVNFLQYHFKELSNYNIANSIDILQEKEGHLDFVIIPHYTFLDYYKHLSYNSIYHKSSTYGKCIAVDAFIKKINEAYDKVKSKCNDIKNDLIATIKKLEHPYDINNKNDDSYRYDISEEIDDKSEETDDETEEVEDSIQDTDSNHAPSNKKKNDLMNRAFKKMMDEYNTKKKKLIKCIKNHENDFNKICMDMKNYGTNLFEQLSCYNNNFCNTNGIRYHYDEYIHKLILSVKSKNLNKDLSDMTNILQQSELLLTNLNKKMGSYIYIDTIKFIHKEMKHIFNRIEYHTKIINDKTKIIQDKIKLNIWRTFQKDELLKRILDMSNEYSLFITSDHLRQMLYNTFYSKEKHLNNIFHHLIYVLQMKFNDVPIKMEYFQTYKKNKPLTQ | 1.03
8 | 70 (protein, bait human Fc-tagged dimer) NTYIYLKQDSFVFSNEFPTVEEKNQALGENYEIVTLTTKDNHKFTCWYIKTKDSENKPIMLYFQGNGGYLEKYMNLFNLIIERVDVNIFSCSNRGCGSNIAKPSEEYFYKDAHVYIEYVKTKNPKHLFIFGSSMGAAVAIDTALKQHDHISGLIVQNAFTSLKELSRYSHPFLNYFLFDYDMIIRSKMDNEAKIKNIAVPTLFTLSEMDEKVPTSHTRTLFQLSASTNKQLYLSKGGTHPNILKNDDGSYHKAMKKFIVTAISIREKNIQKAVERNPNTPN | 0.951
9 | 36 (protein, bait human Fc-tagged dimer) QDEKSVKNICVCDFTDKLNFLPLEKTKILCELKPQYGEDIKIIANKEYEINCMNNAKVFCPLKDTFINNANIKLYSPKLHFEIKDITHKGKNAALYYLKIDEEASDIFFSCSIKPKQVSGLLEGEVRVNLKKHINEEYSIFNEEEDVHVCDFSKGNLDITPSAGFYLKNSRNVACIYRVIPNKLFLIKLPKLDIVTEKLLPSIVNCLSEFSFINFALKHVQEGDNYISFNVIFGEFKKHFNLACSLDLSDFQQEPCNLGKTANIAFIFSK | 0.937
10 | 20 (protein, bait human Fc-tagged dimer) DIIIVDSNKDIQGFDPNSVLNLAENVFNIFLDTKTNNADIKTVYSSIFSNSKVTIDGTCSSMKELIKGRSLKYLDELGTEEYVNSDDVFNFAIFVYTVNGQPDIIQQVYKKHPNYISYIITCKESELFDNIEDAKDNKNVFHTNP | 1.16
11 | 53 (protein, bait human Fc-tagged dimer) EKLISKLTKNGDLDLVLLYDIGFVDDSENDHMNSLENIAELGKNLLVRDNKNINLAYITYDDINVDLRIESRNNIGVDNENNYDKDNNAAYKFGSDKNIEEFRNVVLDTKLKSSYKNSAHLKALNYVGLKHFYNSEKESVKMVVMFMNTDGDYNNNNNNNMNNIASSYSAELNLVHYLFDRKNIILNIITRVAFKNYCHYIQQIGSNTNELLKCVLKNSFYNIAALTYEIIKYYDDISINAICHGWSEWSPCSVTCNMGYHFSKRDSLGYIKNSKSGLYKRKGRSCLEQRNLIIQECFNTACDHSLDICDNIYMDISILLDDSSNIALESWNKYIIPFVRKFITHFNINNNQINFALTTYSSHTYNWFNFANVLSKDKDKLLTYLEFFKFNFGSSTKNIKQAIQYMNDHVLNTNYRRNDAKKIMLIINSGEIDNKAVTSVPDIIQRLKDTHNVQVYSICINNQNVKNCRKLSTHSMEKYGSNFAFSLPNAADLRYNVLGIQKSICRNVAGAFRRKLRSGNKDDEDKKDDEYKEEDEYKEEDEYKEEDEYKEEDEYKEEDEYKEEDEYKEEDEDMKKDEDMKKDEDMKKDEYKKGYKDYKKDQSKNDNKAEERKDEGNIATSNEHHASEKTDDEDIITQYNEEDRHDNSNDNIIIDDEPVGQDNSIFKNENFFWGRGKHDSKYTSKLSINSLGDINEYNDDYNNYDYYDDDPTNRNKGFLKKNSIILKSLYNLNEDYVNNNINNDAGSTSSHCRNNNAGHNDIPHFKNMRKYNSETNIPCSSKSNKATNKKLLNRLYNMLFRKKKKYRIKNMDAHSKKKVEKFIENIKFSKENNDDNRKIDEQNIEIQFDTLLDGIFDFLQDYDNSALNAFNNAAPDDDFVYFSNTAPCGVSLMDFPIYDMENMEADVGGKRNDGDNNDDDDNNDDGDNNDDGDNNDDDDNDDKSNNNNNNNNNGDPSSNNNNNNNNNNGDPSSNNNNNNNGDPSSNNNDDGDADEKRNDYISQYNLVLKDKSHNNNYYMTNEHDERKIKKQENIDILSKEEDNIASNYNNELQRTKRSLDFPEIIIKENYENPKDIIHISKKEEANEANNAKGHINLKNKKEHNNVVDNVNPCNKQNINEEDNNINNAIKTARIGIFNKNKINCRNKKASKFDKIKRFNDKINKDNHPLITNVENKNEEIDVLQNNEDKKQKILPIIKNENAKETGQKYENNDVYEEHNKANINNNVEKLYKDKNSHHIKNQYDKGNLAENNEVTPIYSKDYDADDEEYEHWHGHQRDNKATP | 1.23
12 | 10 (protein, bait human Fc-tagged dimer) FRKYDKNKNKILISHSINNNNNAIKNNNNNNNAIKNNNNNNNAIKNNNNNNNAFSATSFSSEKNKNKAYTNVLKKKNIYIREESNKATNIKEDEEKNKKINNNDKETNYAFLSLKFFPFILTSLLHTGINQIPRNTEIELYEFEKSPMIRHMLVAEERKN | 1.56
